{"source": "paper PMC3200314", "target": "recombinant neuraminidase ectodomain of A/California/04/2009 (pH1N1) (influenza A virus A/California/04/2009 (H1N1))", "experiment": "SEC", "data": [{"substance": "recombinant neuraminidase ectodomain of A/California/04/2009 (pH1N1) (domain or fragment)", "values": [{"measurement": "stoichiometry N", "result": 4}]}]}
